These results are taken from patent US20130174289A1, “Na+/Mg2+ Exchanger” (FBN - Leibnitz-Institut fur Nutztierbiologie, priority 2010, published 2013).

The target of the test is T1, SLC41A1 (Homo sapiens, UniProt Q8IVJ1).
T1 construct: split-ubiquitin half (bait fusion); expressed in transfected cells
The test can be described thus: Split-ubiquitin screen for SLC41A1 complex-forming partners. It is filed as binding. As to conditions: for occurrence: frequency of occurrence = number of clones that revealed interaction with SLC41A1. From the text: These SLC41A1 complex-forming partners were screened out by the split-ubiquitin method, which is well known in the art and are listed in detail in Table 1. The ubiquitin-based split protein sensor (USPS) is the method that makes it possible to detect and monitor protein-protein interactions as a function of time, at the natural sites of these interactions in a living cell. Details on the method can be found in Johnsson and Varshaysky, 1994.
In order to shorten the table, multiple entries were deleted and only the frequency of occurrence (Occurrence) is indicated as a number. The singletons listed in Table 2 are the weakest partners. They are organized from the strongest to the weakest.
In the above tables 1 and 2 underlined names indicate highly connected proteins, found in the majority of DUALmembrane SU-YTH screens. Highly connected proteins include chaperones, stress-induced endoplasmatic reticulum proteins, components of the translocon machinery and proteins involved in membrane protein sorting and transport.

T1 sequence (Q8IVJ1 whole entry, the tested form may be a part): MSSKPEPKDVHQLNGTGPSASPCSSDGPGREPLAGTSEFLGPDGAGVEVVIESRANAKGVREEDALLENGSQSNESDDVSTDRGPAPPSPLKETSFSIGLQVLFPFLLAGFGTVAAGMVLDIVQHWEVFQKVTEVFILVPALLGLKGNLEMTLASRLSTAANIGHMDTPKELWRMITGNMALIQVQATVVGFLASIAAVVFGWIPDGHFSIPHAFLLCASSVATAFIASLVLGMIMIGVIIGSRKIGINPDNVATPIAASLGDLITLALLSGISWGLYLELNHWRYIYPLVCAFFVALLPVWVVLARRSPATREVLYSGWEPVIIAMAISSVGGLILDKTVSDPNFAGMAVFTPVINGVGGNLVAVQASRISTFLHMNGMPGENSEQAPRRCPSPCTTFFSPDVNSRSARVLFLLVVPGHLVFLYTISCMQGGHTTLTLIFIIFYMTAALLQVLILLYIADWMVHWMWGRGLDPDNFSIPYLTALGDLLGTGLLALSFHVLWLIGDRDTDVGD

B1: B-cell receptor-associated protein 31 OS = Homo sapiens: SLC41A1 complex-forming partner from split-ubiquitin screen; GN = BCAP31 (protein)
chain: MSLQWTAVATFLYAEVFVVLLLCIPFISPKRWQKIFKSRLVELLVSYGNTFFVVLIVILVLLVIDAVREIRKYDDVTEKVNLQNNPGAMEHFHMKLFRAQRNLYIAGFSLLLSFLLRRLVTLISQQATLLASNEAFKKQAESASEAAKKYMEENDQLKKGAAVDGGKLDVGNAEVKLEEENRSLKADLQKLKDELASTKQKLEKAENQVLAMRKQSEGLTKEYDRLLEEHAKLQAAVDGPMDKKEE
On to B1, for which, where the note is “split-ubiquitin screening”, the “clones identified with interaction with SLC41A1” value is listed as “Ten”.

B2: Protein YIPF6 OS = Homo sapiens: SLC41A1 complex-forming partner from split-ubiquitin screen; GN = YIPF6 (protein, UniProt Q96EC8 2-236, looked up)
Protein YIPF6: AEAEESPGDPGTASPRPLFAGLSDISISQDIPVEGEITIPMRSRIREFDSSTLNESVRNTIMRDLKAVGKKFMHVLYPRKSNTLLRDWDLWGPLILCVTLALMLQRDSADSEKDGGPQFAEVFVIVWFGAVTITLNSKLLGGNISFFQSLCVLGYCILPLTVAMLICRLVLLADPGPVNFMVRLFVVIVMFAWSIVASTAFLADSQPPNRRALAVYPVFLFYFVISWMILTFTPQ
Molecule B2 gave an occurrence of 2.

B3: 3-beta-hydroxysteroid-Delta(8), Delta(7)-isomerase OS = Rattus norvegicus: SLC41A1 complex-forming partner from split-ubiquitin screen; GN = Ebp (protein, UniProt Q9JJ46 2-230, looked up)
3-beta-hydroxysteroid-Delta(8) …: TTNMLPLHPYWPRHLRLDNFVPNDLPTWHILVGLFSFSGVLIVITWLLSSRVSVVPLGTGRRLALCWFAVCTFIHLVIEGWFSFYHEILLEDQAFLSQLWKEYSKGDSRYILSDGFIVCMESVTACLWGPLSLWVVIAFLRHQPFRFVLQLVVSVGQIYGDVLYFLTELRDGFQHGELGHPLYFWFYFVIMNAIWLVIPGILVFDAIKHLTNAQSMLDNKVMKIKSKHN
Molecule B3 had an occurrence of 1.
